Drawing on the supplement of paper PMC10567573, this text covers protein stability index for 94 variants.

The labels stand for the following.
B1: STK38L (parent)
chain: RQLAYSTVGTPDYIAPEVFMQTGY
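Note: lentivirally expressed fusions sorted by FACS into six bins by GFP to DsRed ratio, PSI derived from sequencing read proportions per bin multiplied by bin number.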

In the data set the parent is B1. The data set can be described thus: protein stability index of a GFP-peptide fusion (GPS, HEK-293T) (PSI 1-6); higher = more stable. The conditions noted are these: c terminus: a fixed tail appended.
Take RQLAYSTVGTPDYIAPEFFMQTGY: the protein stability index was 2.28.

Consider RQLAYSTVGTPDYIAPESFMQTGY, for which the protein stability index amounted to 3.06.

As for RQLAYSTVGTPDYIAPEEFMQTGY, the protein stability index is 3.62.

Consider RQLAYSTVGTPDYIAPEDFMQTGY, for which the protein stability index was 3.57.

On to RQLAYSTVGTPDYIAPEWFMQTGY, for which the protein stability index came to 1.92.

Regarding RQLAYSTVGTPDYIAPEAFMQTGY, the protein stability index is 2.46.

For RQLAYSTVGTPDYIAPEIFMQTGY, the protein stability index is 2.09.

Take RQLAYSTVGTPDYIAPEHFMQTGY: the protein stability index was determined as 2.51.

For the variant RQLAYSTVGTPDYIAPCVFMQTGY, the protein stability index was 1.8.

With RQLAYSTVGTPDYIAPTVFMQTGY, the protein stability index was found to be 1.98.

With RQLAYSTVGTPDYIAPDVFMQTGY, the protein stability index is 2.79.

For RQLAYSTVGTPDYIAPQVFMQTGY, the protein stability index is 2.22.

As for RQLAYSTVGTPDYIAPLVFMQTGY, the protein stability index worked out at 1.76.

As for RQLAYSTVGTPDYIAPPVFMQTGY, the protein stability index stood at 2.12.

Turning to RQLAYSTVGTPDYIAPMVFMQTGY, the protein stability index worked out at 1.68.

RQLAYSTVGTPDYIAPRVFMQTGY: the protein stability index turned out to be 2.71.

RQLAYSTVGTPDYIAPAVFMQTGY: the protein stability index amounted to 2.08.

Consider RQLAYSTVGTPDYIAPGVFMQTGY, for which the protein stability index amounted to 2.39.

For RQLAYSTVGTPDYIAPKVFMQTGY, the protein stability index is 2.08.

On to RQLAYSTVGTPDYIAPHVFMQTGY, for which the protein stability index was 2.22.

In the case of RQLAYSTVGTPDYIAPWVFMQTGY, the protein stability index was 1.44.

As for RQLAYSTVGTPDYIAPSVFMQTGY, the protein stability index was 2.21.

With RQLAYSTVGTPDYIAPFVFMQTGY, the protein stability index turned out to be 1.9.

For RQLAYSTVGTPDYIAPIVFMQTGY, the protein stability index is 2.17.

With RQLAYSTVGTPDYIAPNVFMQTGY, the protein stability index came to 1.97.

Consider RQLAYSTVGTPDYIAPVVFMQTGY, for which the protein stability index stood at 1.83.

Regarding RQLAYSTVGTPDYIAPYVFMQTGY, the protein stability index amounted to 1.78.

For RQLAYSTVGTPDYIAPEVFMQTVY, the protein stability index came to 1.81.

Turning to RQLAYSTVGTPDYIAPEVFMQTFY, the protein stability index was determined as 1.52.

For RQLAYSTVGTPDYIAPEVFMQTQY, the protein stability index was 2.28.

For the variant RQLAYSTVGTPDYIAPEVFMQTHY, the protein stability index is 2.16.

Consider RQLAYSTVGTPDYIAPEVFMQTSY, for which the protein stability index amounted to 2.5.

For RQLAYSTVGTPDYIAPEVFMQTAY, the protein stability index was 2.34.

For the variant RQLAYSTVGTPDYIAPEVFMQTWY, the protein stability index worked out at 1.6.

On to RQLAYSTVGTPDYIAPEVFMQTMY, for which the protein stability index came to 1.63.

RQLAYSTVGTPDYIAPEVFMQTCY: the protein stability index worked out at 1.6.

For the variant RQLAYSTVGTPDYIAPEVFMQTIY, the protein stability index stood at 1.99.

As to RQLAYSTVGTPDYIAPEVFMQTTY, the protein stability index is 2.06.

With RQLAYSTVGTPDYIAPEVFMQTKY, the protein stability index came to 2.59.

As for RQLAYSTVGTPDYIAPEVFMQTNY, the protein stability index amounted to 2.57.

As for RQLAYSTVGTPDYIAPEVFMQTYY, the protein stability index amounted to 1.86.

In the case of RQLAYSTVGTPDYIAPEVFMQTPY, the protein stability index was found to be 2.35.

As to RQLAYSTVGTPDYIAPEVFMQTDY, the protein stability index was 2.83.

Consider RQLAYSTVGTPDYIAPEVFMQTRY, for which the protein stability index was determined as 2.83.

Turning to RQLAYSTVGTPDYIAPEVFMQTEY, the protein stability index was determined as 2.5.

Consider RQLAYSTVGTPDYIAPEVFMQTLY, for which the protein stability index is 2.28.

On to RQLAYSTVGTPDYPAPEVFMQTGY, for which the protein stability index stood at 2.39.

RQLAYSTVGTPDYMAPEVFMQTGY: the protein stability index worked out at 2.4.

For RQLAYSTVGTPDYLAPEVFMQTGY, the protein stability index is 2.92.

For the variant RQLAYSTVGTPDYWAPEVFMQTGY, the protein stability index stood at 1.95.

For the variant RQLAYSTVGTPDYNAPEVFMQTGY, the protein stability index amounted to 2.95.

With RQLAYSTVGTPDYVAPEVFMQTGY, the protein stability index was found to be 2.54.

As to RQLAYSTVGTPDYTAPEVFMQTGY, the protein stability index came out at 2.69.

As for RQLAYSTVGTPDYKAPEVFMQTGY, the protein stability index came out at 3.11.

RQLAYSTVGTPDYSAPEVFMQTGY: the protein stability index turned out to be 3.12.

Turning to RQLAYSTVGTPDYQAPEVFMQTGY, the protein stability index came to 2.66.

For RQLAYSTVGTPDYYAPEVFMQTGY, the protein stability index was determined as 2.28.

RQLAYSTVGTPDYIAPEVFTQTGY: the protein stability index is 2.85.

With RQLAYSTVGTPDYIAPEVFNQTGY, the protein stability index was 2.87.

Take RQLAYSTVGTPDYIAPEVFHQTGY: the protein stability index was 2.25.

Turning to RQLAYSTVGTPDYIAPEVFDQTGY, the protein stability index is 3.97.

As for RQLAYSTVGTPDYIAPEVFPQTGY, the protein stability index is 3.25.

In the case of RQLAYSTVGTPDYIAPEVFWQTGY, the protein stability index came to 1.95.

On to RQLAYSTVGTPDYIAPEVFFQTGY, for which the protein stability index was determined as 2.06.

As for RQLAYSTVGTPDYIAPEVFSQTGY, the protein stability index is 3.

Take RQLAYSTVGTPDYIAPEVFVQTGY: the protein stability index is 3.1.

RQLAYSTVGTPDYIAPEVFEQTGY: the protein stability index turned out to be 2.65.

For RQLAYSTVGTPDYIAPEVFAQTGY, the protein stability index came out at 2.78.

With RQLAYSTVGTPDYIAPEVFQQTGY, the protein stability index was 4.34.

As for RQLAYSTVGTPDYIAPEVFGQTGY, the protein stability index amounted to 2.53.

As to RQLAYSTVGTPDYIAPEVFIQTGY, the protein stability index was 2.14.

Turning to RQLAYSTVGTPDYIAPEVFYQTGY, the protein stability index was found to be 2.89.

Take RQLAYSTVGTPDYIAPEVFCQTGY: the protein stability index stood at 2.63.

With RQLAYSTVGTPDYIAPEVFKQTGY, the protein stability index was found to be 2.76.

On to RQLAYSTVGTPDYIAPEVFRQTGY, for which the protein stability index came out at 2.43.

Consider RQLAYSTVGTPDYIAPEVFLQTGY, for which the protein stability index was determined as 2.89.

In the case of RQLAYSTVGTPDYIAPEVFMVTGY, the protein stability index came out at 1.11.

For RQLAYSTVGTPDYIAPEVFMYTGY, the protein stability index worked out at 1.51.

For RQLAYSTVGTPDYIAPEVFMRTGY, the protein stability index worked out at 2.62.

With RQLAYSTVGTPDYIAPEVFMNTGY, the protein stability index stood at 2.26.

On to RQLAYSTVGTPDYIAPEVFMSTGY, for which the protein stability index turned out to be 2.74.

Regarding RQLAYSTVGTPDYIAPEVFMITGY, the protein stability index came out at 1.65.

Consider RQLAYSTVGTPDYIAPEVFMATGY, for which the protein stability index is 2.88.

On to RQLAYSTVGTPDYIAPEVFMCTGY, for which the protein stability index turned out to be 1.75.

In the case of RQLAYSTVGTPDYIAPEVFMTTGY, the protein stability index stood at 2.42.

For RQLAYSTVGTPDYIAPEVFMWTGY, the protein stability index came out at 1.82.

For RQLAYSTVGTPDYIAPEVFMETGY, the protein stability index is 3.22.

On to RQLAYSTVGTPDYIAPEVFMDTGY, for which the protein stability index was found to be 3.06.

As to RQLAYSTVGTPDYIAPEVFMHTGY, the protein stability index is 2.79.

With RQLAYSTVGTPDYIAPEVFMLTGY, the protein stability index is 1.7.

RQLAYSTVGTPDYIAPEVFMFTGY: the protein stability index came to 2.21.

Take RQLAYSTVGTPDYIAPEVFMPTGY: the protein stability index was determined as 2.49.

On to RQLAYSTVGTPDYIAPEVFMGTGY, for which the protein stability index worked out at 2.27.

Take RQLAYSTVGTPDYIAPEVFMKTGY: the protein stability index amounted to 2.66.
